test: yeast display, Sf9 membrane polyspecificity reagent, FACS + sequencing; frameworks hold sequencing errors
Outline: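 After 36–48 hours of galactose induction, yeast (Saccharomyces cerevisiae BJ5465) displaying a synthetic nanobody library were stained at 4 °C for 1 hour with 10% biotinylated, detergent-solubilized Sf9 membrane reagent. Streptavidin microbeads enriched the stained cells before FACS sorting into low and high (top ~1%) gates on anti-HA and streptavidin fluorescence. Each clone's polyreactivity label reflects its gate of origin.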

| Sequence | polyreactivity (PSR sort gate) |
| --- | --- |
| QVQLVESGGGLVQAGGSLRLSCAASGFTIFIYAMGWYRQAPGKEREFVAAITGSGGSTYYADSVKGRFTISRDNAKNTVYLQMNSLKPEDTAVYYCAAESEYVYWYYVDYDYWGQGTQVTVSS | high polyreactivity |
| QVQLVESGGGLVQAGGSLRLSCAASGFTIGANTMGWYRQAPGKERELVAAISASGGSTYYADSVKGRFTISRDNAKNTVYLQMNSLKPEDTAVYYCAARRYPGRTATYYSWGQGTQVTVSS | high polyreactivity |
| QVQLVESGGGLVQAGGSLRLSCAASGFTIGHYAMGWYRQAPGKERELVAAISSGDRTYFADSVKGRFTISRDNAKNTFYLQMNSLKPEDTAVYYCNAVYYSWAQSARFDYWGQGTQVTVSS | low polyreactivity |
| QVQLVESGGGLVQAGGSLRLSCAASGFTIGRYDMGWYRQAPGKERELVAAISWSGGSTYYADSVKGRFTISRDNAKNTVYLQMNSLKPEDTAVYYCNAAYYGYENLSKRGYWGQGTQVTVSS | high polyreactivity |
| QVQLVESGGGLVQAGGSLRLSCAASGFTIGRYTMGWYRQAPGKERELVAAISWSGGSTYYADSVKGRFTISRDNAKNTVYLQMNSLKPEDTAVYYCAKVFRGGRGDYWGQGTQVTVSS | high polyreactivity |
| QVQLVESGGGLVQAGGSLRLSCAASGFTIGYKVMGWYRQAPGKERELVATISWNGARTYYADSVKGRFTISRDNAKNTVYLQMNSLKPEDTAVYYCAARRYYRGEYDYWGQGTQVTVSS | low polyreactivity |
| QVQLVESGGGLVQAGGSLRLSCAASGFTIHYNAMGWYRQAPGKERELVATISKSAGITSYADSVKGRFTISRDNAKNTVYLLMNSLKPEDTAVYYCAADKSYRRVYYWGQGTQVTVSS | low polyreactivity |
| QVQLVESGGGLVQAGGSLRLSCAASGFTIQPYTMGWYRQATGKERELVAAISKSGGSTYYADSVKGRFTISRDNAKNTVYLQMHSLKPEDTAVYYCAAVGWWGTSDYWGQGTQVTVSS | high polyreactivity |
| QVQLVESGGGLVQAGGSLRLSCAASGFTIRSYVMGWYRQAPGKEREFVAAISYRGGGTNYADSVKGRFTISRDNAKNTVYLQMNSLKPEDTAVYYCNARSGSSKSGYYNWGQGTQVTVSS | high polyreactivity |
| QVQLVESGGGLVQAGGSLRLSCAASGFTISAYAMGWYRQAPGKERELVAAITSGGGSTRYADSVKGRFTISRDNAKNTVYLQMNSLKPEDTAVYYCAARNHRYKFNYWGQGTQVTVSS | high polyreactivity |
| QVQLVESGGGLVQAGGSLRLSCAASGFTITDYAMGWYRQAPGKVRELVAAITWSGGSTYYADSVKGRFTLSRDNAKNTVYLQMNSLKPEDTAVYYCNKVTEGLKMDYWGQGTQVTVSS | low polyreactivity |
| QVQLVESGGGLVQAGGSLRLSCAASGFTIWSYAMGWYRQAPGKERELVAAINYRGTSTYYADSVKGRFTISRDNAKNTVYLQMHSLKPEDTAVYYCAARYYTWQRPTYDYWGQGTQVTVSS | high polyreactivity |
| QVQLVESGGGLVQAGGSLRLSCAASGFTIYKNAMAWYRQAPGKERELVAAISGRGGSTTYADSVKGRFTISRDNAKNTVYLQMNSLKPEDTAVYYCAARFTYSYPLFGSWGQGTQVTVSS | high polyreactivity |
| QVQLVESGGGLVQAGGSLRLSCAASGFTIYRYALGGYRPAPGKERELVAAISKSGVSTYYADSVKGRFTISRDNAKNTVYLLMNSLKPEDTAVYYCAVSLTYRWISFDYWGQGTQVTVSS | high polyreactivity |
| QVQLVESGGGLVQAGGSLRLSCAASGFTIYWYTMVWYRQAPGKERELVAAISRRGGRTYYADSVKGRFTISRDNAKNTVYLQMNSLKPEDTAVYYCAADGTSPVDMNYWGQGTQVTVSS | high polyreactivity |
| QVQLVESGGGLVQAGGSLRLSCAASGFTIYYYAMGWYRQAPGKERELVASISWSGGSTNYADSVKGRFTISRDNAKNTVYLQMNRLKPEDTAVYYCNTAGPYRRDYWGQGTQVTVSS | high polyreactivity |
| QVQLVESGGGLVQAGGSLRLSCAASGFTLADNTMGWYRQAPGKEMELVAAITSGASTYYADSVKGRFTISRDNAKNTVYLQMNSLKPEDTAVYYCAALYYWLSGYDYWGQGTQVTVSS | low polyreactivity |
| QVQLVESGGGLVQAGGSLRLSCAASGFTLAYYAMGWYRQAPGKERELVAAITADTGTTYYADSVKGRFTISRDNAKNTVYLQMNSLKPEDTAVYYCATRDVFYEDDYWGQGTQVTVSS | high polyreactivity |
| QVQLVESGGGLVQAGGSLRLSCAASGFTLAYYAMGWYRQAPGKERELVATISRRGGSTNYADSVKGRFTISRDNAKNTVYLQMNSLKPVDTAVYYCARTLYRGKSYHGHSKYDYWGQGTQVTVSS | high polyreactivity |
| QVQLVESGGGLVQAGGSLRLSCAASGFTLDDNGMGWYRQAPGKERELVASITWSGGSTYYADSVKGRFTISRDNAKNTVYLQMNSLKPEDTAVYYCNVGDPIGGFLSYWGGDYWGQGTQVTVSS | low polyreactivity |
| QVQLVESGGGLVQAGGSLRLSCAASGFTLDVNAMGLYRHAPGKERELVATISWGGASRYYADSVKGRFTISRDNAKNTVYLQMNRLKPEDTAVFYCAAQFYYPDDKGGYDYWGQGTQVTVSS | low polyreactivity |

| Sequence | polyreactivity (PSR sort gate) |
| --- | --- |
| QVQLVESGGGLVQAGGSLRLSCAASGFTLDWYAKGWYRQAPGKERELVAAISSSGRTNYADSVKGRFTISRDNAKNTVYLQMNSLKPEDTAVYYCNRDYPYIWHKGARYWHENDYWGQGTQVTVTS | low polyreactivity |
| QVQLVESGGGLVQAGGSLRLSCAASGFTLDWYAMGWYRQAPGKERELVAAIWSAGTTYYADSVKGRFTISRDNAKNTVYLQMNSLKPEDTAVYYCATVSDYDFGLYDYWGQGTQVTVSS | low polyreactivity |
| QVQLVESGGGLVQAGGSLRLSCAASGFTLEDYTMGWYRQAPGKERELVARITSGGSTNYADSVKGRFTISRDNAKNTVYLQMNSLKPEDTAVYYCNARYAWINMDYWGQGTQVTVSS | low polyreactivity |
| QVQLVESGGGLVQAGGSLRLSCAASGFTLEFSAMGWYRQAPGKERELVASISSGGRTNYADSVKGRFTISRDNAKNTVYLQMYSLKPVDTAVYYCAAEYRSWGRYRYRFNYWGQGTQVTVSS | high polyreactivity |
| QVQLVESGGGLVQAGGSLRLSCAASGFTLFGYAMGWYRQAPGKERELVAAITSGDGRTYYADSVKGRFTISRDNAKNTVYLQMNSLKPEDTAVYYCAATRYSSYYYVRHDHWGQGTQVTVSS | low polyreactivity |
| QVQLVESGGGLVQAGGSLRLSCAASGFTLGDNAMGWSRQAPGKERELVAAISGGGSSTYYADSVKGRFTISRDNAKNTVYLQMNSLKPEDTAVYYCAADYYFSTYYSRYYFWGQGTQVTVSS | low polyreactivity |
| QVQLVESGGGLVQAGGSLRLSCAASGFTLGFYAMGWYRQAPGKESELVAAINWRGGSTYYADSVKGRFTISRDNAKNTVYLQMNSLKPEDTAVYYCNARWARGRYAQYVGLDREYDYWGQGTQVTVSS | high polyreactivity |
| QVQLVESGGGLVQAGGSLRLSCAASGFTLGRYAMGWYRQAPGKEREFVAAISSSGTTTNYADSVKGRFTISRDNAKNTVYLQMNSLKPEDTAVYFCNAYTTKRRWIKYDYWGQGTQVTVSS | high polyreactivity |
| QVQLVESGGGLVQAGGSLRLSCAASGFTLGSNVMGWYRQAPGKERELVAGISQSGGRTFYADSVKGRFTISRDNAKNTVYLQMNSLKPEDTAVYYCNAYRYYSPYGYWGQGTQVTVSS | low polyreactivity |
| QVQLVESGGGLVQAGGSLRLSCAASGFTLKYYAMGWYRQAPGKERELVAAITQRGGSTYADSVKGRFTISRDNAKNTVYLQMNSLKPEDTAFYFCAASSAKYRLYGGYDYWGQGTQVTVSS | high polyreactivity |
| QVQLVESGGGLVQAGGSLRLSCAASGFTLLKYAMGWYIQAPGKERELVAAITRRGGRTSYADSVKGRFTISRDNAKNTVYLQMNSLKPEDTAVYYCNADGDTGRFDYWGQGTQVTVSS | high polyreactivity |
| QVQLVESGGGLVQAGGSLRLSCAASGFTLLTYVMGWYRQAPGKERELVAAISKSGSRTYYADSVKWRFTISRDNAKNTVYLQMNRLKPVDTPVYYCAADTSAYRYDYWGQGTQVTVSS | high polyreactivity |
| QVQLVESGGGLVQAGGSLRLSCAASGFTLLVNAMGWYRQAPGKERELVAAITSGGRTNYADSVKGRFTISRDNAKNTVYLQMNSLKPEDTAVYYCARDWGRKPDDGQQAWYEYWGQGTQVTVSS | low polyreactivity |
| QVQLVESGGGLVQAGGSLRLSCAASGFTLRLYVMGWYRQAPGKERELVAAITSSGGSTYYADSVKGRFTISRDNAKNTVYLQMNSLKPEDTAVYYCAAVNRKSQLYGYWGQGTQVTVSS | high polyreactivity |
| QVQLVESGGGLVQAGGSLRLSCAASGFTLRSNVMGWSRQAPGKERELVAGISQSGGRTFYADSVKGRFTISRDNAKNTVYLQMNSLKPEDTAVYYCAARRYAVEGSKNYYWGQGTQVTVSS | low polyreactivity |
| QVQLVESGGGLVQAGGSLRLSCAASGFTLRTYAMGWYRQAPGKERELVAAITVSGGTYYADSVKGRFTISRDNAKYTVYLQMNSLKPEDTAVYYCTAKRFGTGFDYWGQGTQVTVSS | low polyreactivity |
| QVQLVESGGGLVQAGGSLRLSCAASGFTLRYYAMGWSRQAPVKERELVATIKRSGASTYYADSVKGRFTISRDNSKNTVYLQMNSLKPEDTAVYYCNTATSRAYRYDYWGQGTQVTVSS | high polyreactivity |
| QVQLVESGGGLVQAGGSLRLSCAASGFTLSAYAMGLYRQAPGKERELVAGNSYTGGRTYYADSVKGRFTISRDNAKNTFYLQLISLKPEDTAVDYCAAALYSDVDAVATYGYYWGEGTQVTVSS | low polyreactivity |
| QVQLVESGGGLVQAGGSLRLSCAASGFTLSDYAMGGYRKAAGTERELVAGISSGGSTNYADSVKGRFTISRDNAKNTVYLQMNSLKPEDTAVYYCATRGTFQSHIRSGYWGQGTQVTVSS | high polyreactivity |
| QVQLVESGGGLVQAGGSLRLSCAASGFTLSRYAMGWYRQAPGKERELVAAIRWSGGSTYYADSVKGRFTISRDNEKNTVYLQMNSLKPEDTAVYYCATRRSGYYSFYYWGQGTQVTGSS | high polyreactivity |
